± gives the uncertainty stated by the source.
B1: Homeobox protein cut-like 1, residues 548 to 629; numbered along this chain, P39880 (parent)
chain: GEEMDTAEIARQVKEQLIKHNIGQRIFGHYVLGLSQGSVSEILARPKPWNKLTVRGKEPFHKMKQFLSDEQNILALRSIQGR

Variants of: B1
Experiment: abundance fitness (aPCA) (normalised: wild type 0, dead -1); higher = more abundant; growth selection in yeast, the domain comes from the species named
Conditions: Homo sapiens

In order of rising abundance fitness:
1. L52H  -1.02 ± 0.16
2. V39R  -0.915 ± 0.043
3. L52V  -0.879 ± 0.07
4. F27D  -0.862 ± 0.1
5. F27P  -0.861 ± 0.081
6. G33L  -0.822 ± 0.055
7. M63T  -0.777 ± 0.057
8. F60C  -0.762 ± 0.26
9. P46N  -0.685 ± 0.092
10. L43D  -0.68 ± 0.1
11. S68P  -0.656 ± 0.065
12. K19W  -0.618 ± 0.038
13. I22C  -0.491 ± 0.062
14. V31M  -0.431 ± 0.051
15. S68W  -0.4 ± 0.039
16. K57C  -0.393 ± 0.066
17. S78P  -0.359 ± 0.07
18. M63I  -0.31 ± 0.069
19. G23F  -0.293 ± 0.076
20. N72I  -0.289 ± 0.06
21. G56C  -0.279 ± 0.056
22. G23W  -0.268 ± 0.031
23. R11Y  -0.249 ± 0.08
24. K64N  -0.225 ± 0.062
25. N72D  -0.221 ± 0.044
26. M4Y  -0.203 ± 0.066
27. K19L  -0.201 ± 0.034
28. V54W  -0.173 ± 0.061
29. Q65C  -0.172 ± 0.063
30. E70M  -0.139 ± 0.038
31. Y30F  -0.126 ± 0.059
32. E3S  -0.118 ± 0.032
33. S38Y  -0.112 ± 0.054
34. Y30L  -0.111 ± 0.031
35. N50D  -0.103 ± 0.12
36. N72C  -0.098 ± 0.049
37. N50K  -0.093 ± 0.076
38. Y30A  -0.082 ± 0.029
39. S35N  -0.081 ± 0.058
40. Q80H  -0.075 ± 0.06
41. N50R  -0.04 ± 0.066
42. V54Y  -0.033 ± 0.048
43. S38H  -0.031 ± 0.051
44. G37C  -0.013 ± 0.048
45. G37H  0.006 ± 0.055
46. H29K  0.022 ± 0.036
47. A10V  0.032 ± 0.029
48. G1M  0.038 ± 0.073
49. A75R  0.05 ± 0.026
50. K57Q  0.057 ± 0.036
51. P59S  0.076 ± 0.036
52. P59T  0.088 ± 0.041

— the Human Domainome abundance scans (Beltran et al. 2025)
